The values that follow come from article PMC2671235 (Biochemistry, 2009).

By stoichiometry N is commonly meant a count of units in the complex or per binding partner. A word on the Kd: it is the concentration at which binding is half-saturated. A lower Kd goes with a tighter complex.

The chains are these.
B1: S100A11 (natural protein, human, UniProt P31949 1-105, looked up)
chain: MAKISSPTETERCIESLIAVFQKYAGKDGYNYTLSKTEFLSFMNTELAAFTKNQKDPGVLDRMMKKLDTNSDGQLDFSEFLNLIGGLAMACHDSFLKAVPSQKRT
B2: Annexin II peptide (peptide)
peptide: Ac-STVHEILSKLSLEGY
B3: Annexin I peptide (peptide)
peptide: Ac-AMVSEFLKQAWFIE

Ends that are not written are not given here.

The test “Annexin I peptide” addresses B3. Nature of the test: ITC. On the technique in general: In ITC the heat of successive injections is recorded.
Test [1] concerns the target B1. Nature of the test: ITC.
The target of a further test is S100A10 (human, UniProt P60903 1-97). Put plainly: ITC.
S100A10, sequence (P60903 whole entry): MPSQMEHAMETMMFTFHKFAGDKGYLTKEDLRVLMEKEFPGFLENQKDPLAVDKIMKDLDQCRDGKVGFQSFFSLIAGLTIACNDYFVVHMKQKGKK
Test [2] has as its target B1. Put plainly: ITC. This is another data set of the same source.
The target of test [3] is T1, S100A6 (human, UniProt P06703 1-90). Nature of the test: ITC.
Test [4] addresses B1. Put plainly: other fluorescence titration.
The target of test [5] is T1, S100A6. Nature of the test: other fluorescence titration.

Regarding B1, in the test with Annexin I peptide, the “dH at 15°C” value is -0.956 kcal/mol, the “dH at 35°C” value is -7.17 kcal/mol and the “stoichiometry N” value is 2 binding sites per dimer.
Take B2: the “stoichiometry N” value with S100A11 [1] and in the test with S100A10 was 2 binding sites per dimer each time.
For B3, the Kd with S100A11 [2] is 5 ± 2 µM; with S100A6 [3], 13 ± 4 µM; with S100A11 [4], 5 ± 1 µM; with S100A6 [5] it was 17 ± 4 µM.
